In patent US5223421A, “Identification of methionine Nα-acetyltransferase” (The General Hospital Corporation, priority 1990, dated 1993):

Target: T1, yeast methionine acetyltransferase (M-N^α AT) (Saccharomyces cerevisiae, UniProt Q06504)
T1 construct: a crude yeast homogenate from the aaa1 mutant strain; endogenous in cells; host or cells: Saccharomyces cerevisiae strain T3A-a (aaa1), crude lysate
T1 sequence (Q06504 1-195): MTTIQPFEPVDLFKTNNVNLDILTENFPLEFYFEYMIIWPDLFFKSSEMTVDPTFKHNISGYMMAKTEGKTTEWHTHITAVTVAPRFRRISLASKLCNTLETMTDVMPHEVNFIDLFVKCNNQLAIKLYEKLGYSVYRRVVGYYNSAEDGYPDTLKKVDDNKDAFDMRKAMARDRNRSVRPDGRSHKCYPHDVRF
T1 sequence (Q12387 2-796 partner limits assumed): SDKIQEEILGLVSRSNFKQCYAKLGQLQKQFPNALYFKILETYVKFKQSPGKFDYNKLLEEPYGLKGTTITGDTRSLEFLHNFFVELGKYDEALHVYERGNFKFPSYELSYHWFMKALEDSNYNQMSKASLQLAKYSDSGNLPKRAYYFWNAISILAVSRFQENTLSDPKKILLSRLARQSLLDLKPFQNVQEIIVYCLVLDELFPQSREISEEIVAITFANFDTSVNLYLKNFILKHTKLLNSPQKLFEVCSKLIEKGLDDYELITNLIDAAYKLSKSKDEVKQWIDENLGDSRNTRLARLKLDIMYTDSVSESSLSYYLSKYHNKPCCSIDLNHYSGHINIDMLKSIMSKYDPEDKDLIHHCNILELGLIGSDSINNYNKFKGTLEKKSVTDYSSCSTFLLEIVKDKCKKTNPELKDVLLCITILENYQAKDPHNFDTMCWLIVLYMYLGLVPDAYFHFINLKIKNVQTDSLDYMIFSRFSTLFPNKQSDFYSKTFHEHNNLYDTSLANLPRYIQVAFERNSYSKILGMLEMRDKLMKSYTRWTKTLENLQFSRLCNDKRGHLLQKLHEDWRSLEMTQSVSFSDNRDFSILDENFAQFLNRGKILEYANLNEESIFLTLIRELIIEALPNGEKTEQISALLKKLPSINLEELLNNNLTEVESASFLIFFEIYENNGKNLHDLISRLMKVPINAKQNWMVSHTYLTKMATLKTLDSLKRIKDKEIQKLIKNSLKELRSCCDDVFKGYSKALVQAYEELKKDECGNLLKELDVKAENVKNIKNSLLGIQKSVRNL
Assay: Relative activity of yeast methionine acetyltransferase for N^α -acetylation of synthetic peptides (PAI analogues)
Assay type: biochemical
Parameters: tested at 50 µM
Settings: Table 5; mean ± SD (N=3-5); normalized to yeast proteinase A inhibitor 3
Method: N^α -acetyltransferase activity was determined as previously described [Lee et al., J. Biol. Chem. 263:14948-14955 (1988)]. Aliquots of the lysate or chromatographic fractions were added to 1.5 ml Eppendorf tubes containing a reaction mixture of 50 mM HEPES, pH 7.4, 150 mM KCl, 1 mM DTT, 25 μM [^3 H] acetyl coenzyme A (0.5 μCi) and 50 μM synthetic peptide with an adjusted final volume of 100 μl. The assay mixture was incubated at 30° C. for 30 min. The reaction was stopped by adding 17 μl of 0.5M acetic acid and chilled in an ice bath. The reaction samples were filtered through SP membrane discs (Cuno) (previously pre-swollen in 0.5M acetic acid), and then washed three times with 1 ml of 0.5M acetic acid on a Millipore 1225 sampling manifold. The partially dried membranes were placed in scintillation cocktail and counted with a Beckman LS 3801 scintillation counter. One unit of activity was defined as the amount of enzyme able to transfer 1 pmol of [^3 H] acetyl group from [^3 H] acetyl coenzyme A to synthetic peptide per min under standard enzyme assay conditions defined above.
Proteinase A inhibitor 3 (PAI) (Tsunasawa et al., Methods Enzymol. 106:165-170 (1984); Wold, F., Trends Biochem Sci. 9:256-267 (1984); Driessen et al., CRC Crit. Rev. Biochem 18:281-325 (1985); Mullen et al., EMBO J. 8:2067-2075 (1989); Lee et al., J. Bacteriol. 171:5795-5802 (1989); Hershko et al., Proc. Natl. Acad. Sci. USA 81:7021-7025 (1984); Bachmair et al., Science 234:179-186 (1986); Arfin et al., Biochemistry 27:7979-7984 (1988); Persson et al., Eur. J. Biochem. 152:523-527 (1985); Huang al., Biochemistry 26:8242-8246 (1987); Lee et al., J. Biol. Chem. 263:14948-14955 (1988); Kamitani et al., J. Biol. Chem. 264:13188-13193 (1989)) is the only known yeast protein which is acetylated at its NH2 -terminal methionine residue (Biedermann et al., Carlsberg Res. Commun. 45:225-235 (1980)). […] The numbers in parentheses refer to the residue numbers, and the letters in parentheses refer to the amino acid sequence Abbreviations are as in FIG. 1. Data are reported as mean activity ±SD (N=3-5) and are normalized to the activity of the homogenate towards yeast proteinase A inhibitor 3. The sequence of this protein is:
Thus, by using PAI, its analogues and other peptides, the structural features of M-N^α AT substrates were studied. […] Only three of nineteen analogues were acetylated, although the efficiency of their acetylation varied from 9-55% (Asp>Glu>Gln). Although it was shown previously that iso-cytochrome c variant proteins (Met-Ile-Arg - - -, Met-Ile-Lys - - -, Met-Met-Asn - - -) can be N^α -acetylated in vivo (Tsunasawa et al., J. Biol. Chem. 260:5382-5391 (1985)), synthetic peptides mimicking the NH2 -terminal 24 amino acid residues of these iso-cytochrome c variants were not acetylated by the yeast M-N^αAT.

MNTDQQKVSEIFQSSKEKLQGDAK (MNTDQQKVSEIFQSSKEKLQGDAK) [Proteinase A Inhibitor 3 (1-24) (Yeast)]
Activity (%): 100 ± 5%
